# From US20250197461A1, “Insect-derived short peptide for improving abscisic acid (ABA) content in cruciferous plant” (Gannan Normal University, priority 2023, published 2025)
# Key:
# [1] = molecular target: T1, zeaxanthin epoxidase aba1 (Arabidopsis thaliana, UniProt Q9FGC7); experiment: Yeast two-hybrid interaction of GSS1 and its variants with aba1; format: binding; details: Y2HGold yeast, TDO/QDO with x-α-gal
# T1 construct: expressed in transfected cells; host or cells: Y2HGold yeast (Saccharomyces cerevisiae)
# T1 sequence (Q9FGC7 60-667): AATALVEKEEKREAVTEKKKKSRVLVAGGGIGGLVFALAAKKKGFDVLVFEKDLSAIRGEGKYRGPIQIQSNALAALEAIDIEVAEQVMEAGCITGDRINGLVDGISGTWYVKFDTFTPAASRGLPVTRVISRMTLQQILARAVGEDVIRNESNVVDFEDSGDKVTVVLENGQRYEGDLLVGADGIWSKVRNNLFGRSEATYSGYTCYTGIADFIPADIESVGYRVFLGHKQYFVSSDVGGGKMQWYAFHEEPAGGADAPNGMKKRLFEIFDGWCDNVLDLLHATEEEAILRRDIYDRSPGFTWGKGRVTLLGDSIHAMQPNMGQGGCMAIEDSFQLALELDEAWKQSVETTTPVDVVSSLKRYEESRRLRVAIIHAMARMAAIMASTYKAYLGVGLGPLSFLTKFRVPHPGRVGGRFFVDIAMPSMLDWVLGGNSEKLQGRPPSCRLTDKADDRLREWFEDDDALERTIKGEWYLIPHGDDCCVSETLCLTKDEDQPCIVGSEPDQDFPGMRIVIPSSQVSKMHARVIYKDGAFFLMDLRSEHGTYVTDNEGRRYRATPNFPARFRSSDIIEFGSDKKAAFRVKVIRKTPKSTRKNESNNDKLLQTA
# Source text: A Y2HGold yeast transformant containing the correct pGBKT7-GSS1 bait plasmid was used as a recipient strain to prepare competent cells, and a library plasmid extracted from the yeast library was transferred into the competent cells, and coated on the SD-Trp-Leu-His+5 mM3AT plate. […]
# [2] = test system: Plutella xylostella larvae; experiment: Plutella xylostella larvae fed on Arabidopsis thaliana treated with short peptide; format: in vivo; details: third-instar larvae fed on treated Arabidopsis thaliana for 3 days
# Source text: (5) Biological Experimental Observation after GSS-PI Short Peptide Treatment with Arabidopsis thaliana. • 1) 60 newly molted third-instar larvae fed on artificial feed were divided into 3 groups, and 20 larvae in each group were fed on Arabidopsis thaliana plants treated with GSS-P1 short peptide or GFP control short peptide; • 2) In order to prevent plants from being damaged mechanically or influenced by external factors, a simple interactive biological observation device for insect-plant interaction was used to eliminate potential interference factors; • 3) After 3 days, the simple interactive biological observation device was opened, and the number of larvae (4th instar larvae) was observed and counted, the number of larvae surviving was recorded, and divided by the initial number of 20 larvae to obtain the daily survival rate of larvae.
sequence,measurement,setting,value
PDYKQKLRDSKAWESLETIGIPLDADVM (insect-derived short peptide) [GSS1-PI],interaction with aba1 (yeast two-hybrid),[1],interacted with aba1
same,mortality rate of larvae,[2],about 70%
